Experimental data reported in US12637662B2, “Cells, islets, and organoids that evade immune detection and autoimmunity, methods of production and use thereof” (SALK INSTITUTE FOR BIOLOGICAL STUDIES, priority 2018, dated 2026).

Legend:
[1] = test system: postnatal mouse islets; test: rhWNT4 culture of postnatal islets from WT and β cell specific ERRγKO mice; format: cell-based; details: 100 ng/ml for 5 days; WT but not ERRγKO mice
Source text: FIGS. 8A-8H provide images, graphs, a schematic and a diagram showing results related to WNT4 mediated insulin-GFP expression and WNT4-driven metabolic maturation. FIG. 8A presents representative images of mitochondrial content, indicated by MitoTracker (red) staining, in PBS and WNT4 treated HILOs (scale bar, 100 μm). FIG. 8B presents graphs of flow cytometry quantification of insulin expression (GFP) and mitochondrial content in HILOs treated with recombinant human WNT4 (rhWNT4), WNT5A (rhWNT5A), or conditioned medium (CM) from control or WNT5A overexpressing fibroblasts (n=3). Error bars represent SEM. *p<0.05. […]
Insulin release from intact islets was monitored using batch incubation methods as reported by E. Yoshihara et al., 2016, Cell metabolism, 23:622-634. […] After 30 minutes, the islets were pelleted by centrifugation and secreted insulin levels were determined in the medium by Enzyme Linked Immunosorbent Assay (ELISA), (Rat/mouse Insulin ELISA KIT (Millipore) and Human Insulin ELISA KIT or ultrasensitive human c-peptide ELISA Kit (Millipore) for mouse and human islets, respectively). […] After 30 minutes, the cells were pelleted by centrifugation and c-peptide levels were determined in the supernatant medium using the human c-peptide ELISA KIT (Millipore). […]

[2] = test system: human iPSC derived cells (islet-like organoids, MCS, HILOs); test: Glucose-stimulated insulin/c-peptide secretion assay (GSIS, ELISA); format: cell-based
Description: Insulin release from intact islets was monitored using batch incubation methods as reported by E. Yoshihara et al., 2016, Cell metabolism, 23:622-634. Briefly, overnight-cultured, isolated pancreatic islets (RPMI-1640 medium supplemented with 10% (v/v) fetal bovine serum and 1% (v/v) Antibiotic-Antimycotic (Gibco)) were pre-cultured at 37° C. for 30 minutes in Krebs-Ringer bicarbonate buffer (KRBB) containing 129.4 mM NaCl, 3.7 mM KCl, 2.7 mM CaCl2), 1.3 mM KH2PO4, 1.3 mM MgSO4, 24.8 mM NaHCO3 (equilibrated with 5% CO2, 95% O2, pH 7.4), 10 mM HEPES and 0.2% (v/v) BSA (fraction V, Sigma) (KRBH) with 3 mM glucose). […] After 30 minutes, the islets were pelleted by centrifugation and secreted insulin levels were determined in the medium by Enzyme Linked Immunosorbent Assay (ELISA), (Rat/mouse Insulin ELISA KIT (Millipore) and Human Insulin ELISA KIT or ultrasensitive human c-peptide ELISA Kit (Millipore) for mouse and human islets, respectively). […] After 30 minutes, the cells were pelleted by centrifugation and c-peptide levels were determined in the supernatant medium using the human c-peptide ELISA KIT (Millipore). […]
Insulin release from intact islets was monitored using batch incubation methods (Yoshihara et al., 2010, Nat. Commun. 1:127). […] After 30 min, the cells were pelleted by centrifugation and c-peptide levels were determined by human c-peptide ELISA KIT (Millipore).

B1: WNT4: recombinant human Wnt4 protein (R&D Systems), non-canonical WNT maturation factor (protein, UniProt P56705 23-351, looked up)
Protein Wnt-4: SNWLYLAKLSSVGSISEEETCEKLKGLIQRQVQMCKRNLEVMDSVRRGAQLAIEECQYQFRNRRWNCSTLDSLPVFGKVVTQGTREAAFVYAISSAGVAFAVTRACSSGELEKCGCDRTVHGVSPQGFQWSGCSDNIAYGVAFSQSFVDVRERSKGASSSRALMNLHNNEAGRKAILTHMRVECKCHGVSGSCEVKTCWRAVPPFRQVGHALKEKFDGATEVEPRRVGSSRALVPRNAQFKPHTDEDLVYLEPSPDFCEQDMRSGVLGTRGRTCNKTSKAIDGCELLCCGRGFHTAQVELAERCSCKFHWCCFVKCRQCQRLVELHTCR
[1]
  mitochondrial metabolic gene expression and GSIS in neonatal islets: induced the expression of mitochondrial metabolic genes and improved GSIS function
[2]; 3 mM vs 20 mM glucose
  glucose-stimulated insulin (c-peptide) secretion in vitro: showed functional maturation
[2]; 3D differentiation medium containing WNT4
  pseudo-islet formation and GSIS of commercially-available hiPSC-derived β like cells: promoted pseudo-islet formation and GSIS functionality
